Reference: patent US20260098095A1 (Hoffmann-La Roche, published 2026)

Tests used:
[1] = molecular target: T1, HLA-A2/MAGE-A4 peptide MHC (pMHC) complex on cells (human); assay: cell-based or functional assay
[2] = molecular target: T2, HLA-A2/MAGE-A4p230-239 complex (human); assay: SPR Biacore T200, antibody captured by anti-human Fc, pMHC complex as analyte, 25 C, 1:1 Langmuir fit
T2 construct: also called HLA-A2/MAGEp230-239
Experimental: The dissociation phase was monitored for 240 s and triggered by switching from the sample solution to HBS-EP+. The chip surface was regenerated after every cycle using an injection of 3M MgCl₂ at 10 μl/min for 30 sec. Bulk refractive index differences were corrected for by subtracting the response obtained on the reference flow cell which contains the anti-human Fc antibody, but without HLA-A2/MAGE-A4 antibody captured on it. The affinity constants were derived from the kinetic rate constants by fitting to a 1:1 Langmuir binding using the BIAeval software (GE Healthcare). The measurement was performed in triplicate with independent dilution series.

[3] = molecular target: T1, HLA-A2/MAGE-A4 peptide MHC (pMHC) …; assay: cell-based or functional assay; remark: listed apart in the source
[4] = molecular target: T1, HLA-A2/MAGE-A4 peptide MHC (pMHC) …; assay: cell-based or functional assay; remark: listed apart in the source
[5] = molecular target: T1, HLA-A2/MAGE-A4 peptide MHC (pMHC) …; assay: cell-based or functional assay; remark: listed apart in the source
pfkA = pfkA (human); assay: cell-based or functional assay
DPYSL3 = DPYSL3 (human); assay: cell-based or functional assay
gutQ = gutQ (human); assay: cell-based or functional assay
UBE2V2 = UBE2V2 (human); assay: cell-based or functional assay
DPYSL4 = DPYSL4 (human); assay: cell-based or functional assay
PIGG = PIGG (human); assay: cell-based or functional assay
CRMP1 = CRMP1 (human); assay: cell-based or functional assay
BNRF1 = BNRF1 (human); assay: cell-based or functional assay
EDC3 = EDC3 (human); assay: cell-based or functional assay
FBXO34 = FBXO34 (human); assay: cell-based or functional assay
SLC45A1 = SLC45A1 (human); assay: cell-based or functional assay
KEAP1 = KEAP1 (human); assay: cell-based or functional assay
UNC80 = UNC80 (human); assay: cell-based or functional assay
VPS13D = VPS13D (human); assay: cell-based or functional assay
MAGEB2 = MAGEB2 (human); assay: cell-based or functional assay
ARF1 = ARF1 (human); assay: cell-based or functional assay
ARF3 = ARF3 (human); assay: cell-based or functional assay
URB1 = URB1 (human); assay: cell-based or functional assay
GAPDHS = GAPDHS (human); assay: cell-based or functional assay
CCS = CCS (human); assay: cell-based or functional assay
KDM1A = KDM1A (human); assay: cell-based or functional assay
DYNC1H1 = DYNC1H1 (human); assay: cell-based or functional assay
MTOR = MTOR (human); assay: cell-based or functional assay
PKP1 = PKP1 (human); assay: cell-based or functional assay
T9A = T9A (human); assay: cell-based or functional assay
V10A = V10A (human); assay: cell-based or functional assay
G1A = G1A (human); assay: cell-based or functional assay
V2A = V2A (human); assay: cell-based or functional assay
Y3A = Y3A (human); assay: cell-based or functional assay
D4A = D4A (human); assay: cell-based or functional assay
G5A = G5A (human); assay: cell-based or functional assay
R6A = R6A (human); assay: cell-based or functional assay
E7A = E7A (human); assay: cell-based or functional assay
H8A = H8A (human); assay: cell-based or functional assay
[6] = molecular target: T1, HLA-A2/MAGE-A4 peptide MHC (pMHC) …; assay: cell-based or functional assay; remark: listed apart in the source
[7] = molecular target: T1, HLA-A2/MAGE-A4 peptide MHC (pMHC) …; assay: cell-based or functional assay; remark: listed apart in the source

B1: Molecule L (antibody, V domains shown)
VH: not shown
VL: SSELTQDPAVSVALGQTVRITCQGDSLRSYYASWYQQKPGQAPVLVIYGKNNRPSGIPDRFSGSSSGNTASLTITGAQAEDEADYYCNSRQSSYYHHIVFGGGTKLTVL
notes: also called 032G09 IgG antibody
- EC50 (pM), activation of PGLALA-CAR-J cells in presence of MAGE-A4 peptide pulsed T2 cells [1]: 83.7 pM
- Kd [2]: 25.1 nM
- koff [2]: 0.003 s⁻¹
- kon [2]: 120000 M⁻¹ s⁻¹

B2: Molecule M (antibody, V domains shown)
VH: not shown
VL: SSELTQDPAVSVALGQTVRITCQGDSLRSYYASWYQQKPGQAPVLVIYGKNNRPSGIPDRFSGSSSSNTASLTITGAQAEDEADYYCNSRMSSRYHHDVFGGGTKLTVL
notes: also called 034F05 IgG antibody
- EC50 (pM), activation of PGLALA-CAR-J cells in presence of MAGE-A4 peptide pulsed T2 cells [1]: 19.2 pM
- Kd [2]: 2.47 nM
- koff [2]: 0.00111 s⁻¹
- kon [2]: 450000 M⁻¹ s⁻¹

B3: Molecule C (bispecific antibody, V domains shown)
VH 1: TQQLVESGGGLVQPGGSLRLSCAASGFSFSFDTMSWVRQAPGKGLEWVGSISPSGGSTYYNDNVLGRFTISRDNSKNTLYLQMNSLRAEDTAVYYCARDHGYFDMWGQGTLVTVSS
VL 1: DIQMTQSPSSLSASVGDRVTITCRASQSISSYLAWYQQKPGKAPKLLIYDASWLELGVPSRFSGSGSGTDFTLTISSLQPEDFATYYCQQYSSYPYTFGQGTKLEIK
VH 2: not shown
VL 2: QAVVTQEPSLTVSPGGTVTLTCGSSTGAVTTSNYANWVQEKPGQAFRGLIGGTNKRAPGTPARFSGSLLGGKAALTLSGAQPEDEAEYYCALWYSNLWVFGGGTKLTVL
- EC50 [pM] 24 h, T-cell mediated lysis of MAGE-A4 peptide pulsed T2 cells [3]: 121 pM
- EC50 [pM], activation of Jurkat-NFAT reporter cells (luminescence, 6 h) with MAGE-A4 peptide pulsed T2 cells [4]: 976 pM
- EC50 [pM], T-cell mediated lysis of IM-9 cells, 24 h [5]: 2740 pM
- EC50 [pM], T-cell mediated lysis of NCI-H1755 cells, 24 h [5]: 460 pM
- % of MAGE-A4 signal, Jurkat-NFAT (pfkA): 0.4%
- % of MAGE-A4 signal, Jurkat-NFAT (DPYSL3): 0.35%
- % of MAGE-A4 signal, Jurkat-NFAT (gutQ): 0.36%
- % of MAGE-A4 signal, Jurkat-NFAT (UBE2V2): 0.52%
- % of MAGE-A4 signal, Jurkat-NFAT (DPYSL4): 0.27%
- % of MAGE-A4 signal, Jurkat-NFAT (PIGG): 0.33%
- % of MAGE-A4 signal, Jurkat-NFAT (CRMP1): 0.29%
- % of MAGE-A4 signal, Jurkat-NFAT (BNRF1): 0.36%
- % of MAGE-A4 signal, Jurkat-NFAT (EDC3): 0.48%
- % of MAGE-A4 signal, Jurkat-NFAT (FBXO34): 0.39%
- % of MAGE-A4 signal, Jurkat-NFAT (SLC45A1): 0.22%
- % of MAGE-A4 signal, Jurkat-NFAT (KEAP1): 0.51%
- % of MAGE-A4 signal, Jurkat-NFAT (UNC80): 0.43%
- % of MAGE-A4 signal, Jurkat-NFAT (VPS13D): 0.39%
- % of MAGE-A4 signal, Jurkat-NFAT (MAGEB2): 0.34%
- % of MAGE-A4 signal, Jurkat-NFAT (ARF1): 0.23%
- % of MAGE-A4 signal, Jurkat-NFAT (ARF3): 0.49%
- % of MAGE-A4 signal, Jurkat-NFAT (URB1): 0.45%
- % of MAGE-A4 signal, Jurkat-NFAT (GAPDHS): 0.37%
- % of MAGE-A4 signal, Jurkat-NFAT (CCS): 0.29%
- % of MAGE-A4 signal, Jurkat-NFAT (KDM1A): 0.24%
- % of MAGE-A4 signal, Jurkat-NFAT (DYNC1H1): 0.17%
- % of MAGE-A4 signal, Jurkat-NFAT (MTOR): 0.26%
- % of MAGE-A4 signal, Jurkat-NFAT (PKP1): 0.49%
- EC50, Jurkat-NFAT activation (T9A): 0.67 nM
- EC50, Jurkat-NFAT activation (V10A): 13 nM
- EC50, Jurkat-NFAT activation (G1A): 1.44 nM
- EC50, Jurkat-NFAT activation (V2A): 0.687 nM
- EC50, Jurkat-NFAT activation (Y3A): 0.626 nM
- EC50, Jurkat-NFAT activation (D4A): 0.738 nM
- EC50, Jurkat-NFAT activation (G5A): 16.8 nM
- EC50, Jurkat-NFAT activation (R6A): 4.34 nM
- EC50, Jurkat-NFAT activation (E7A): 1.22 nM
- EC50, Jurkat-NFAT activation (H8A): 3.94 nM
- EC50, Jurkat-NFAT activation [6]: 1.03 nM

B4: Molecule H (antibody, V domains shown)
VH: YVQLVESGGGLVKPGGSLRLSCAAPLPFTGLDMSWVRQAPGKGLEWVGSISPKGGSTYYNDNVLGRFTISRDNSKNTLYLQMNSLRAEDTAVYYCARDWGFFDLWGQGTLVTVSS
VL: AIQMTQSPSSLSASVGDRVTITCRASQSISNYLAWYQQKPGKAPKLLIYDANAHENDVPSRFSGSGSGTDFTLTISSLQPEDFATYYCQQYSSHPYTFGQGTKLEIK
notes: also called 007A09 IgG antibody
- EC50 (pM), activation of PGLALA-CAR-J cells in presence of MAGE-A4 peptide pulsed T2 cells [1]: 8.6 pM
- Kd [2]: 17.3 nM
- koff [2]: 0.00426 s⁻¹
- kon [2]: 247000 M⁻¹ s⁻¹

B5: Molecule K (antibody, V domains shown)
VH: AQLVESGGGLVQPGGSLRLSCAASAYFSFKAMSWVRQAPGKGLEWVGSISPSGGSTYYNDNVLGRFTISRDNSKNTLYLQMNSLRAEDTAVYYCAKDVGFFDEWGQGTLVTVSS
VL: DIQMTQSPSSLSASVGDRVTITCRASQSISSYLAWYQQKPGKAPKLLIYDASIRDIGVPSRFSGSGSGTDFTLTISSLQPEDFATYYCQQYSSYPYTFGQGTKLEIK
notes: also called 057D03 IgG antibody
- EC50 (pM), activation of PGLALA-CAR-J cells in presence of MAGE-A4 peptide pulsed T2 cells [1]: 18.2 pM
- Kd [2]: 15.7 nM
- koff [2]: 0.0408 s⁻¹
- kon [2]: 2.6e+06 M⁻¹ s⁻¹

B6: Molecule J (antibody, V domains shown)
VH: TQQLVESGGGLVQPGGSLRLSCAASGFSFSFDTMSWVRQAPGKGLEWVGSISPSGGSTYYNDNVLGRFTISRDNSKNTLYLQMNSLRAEDTAVYYCARDHGYFDMWGQGTLVTVSS
VL: DIQMTQSPSSLSASVGDRVTITCRASQSISSYLAWYQQKPGKAPKLLIYDASWLELGVPSRFSGSGSGTDFTLTISSLQPEDFATYYCQQYSSYPYTFGQGTKLEIK
notes: also called 057B04 IgG antibody
- EC50 (pM), activation of PGLALA-CAR-J cells in presence of MAGE-A4 peptide pulsed T2 cells [1]: 208 pM
- Kd [2]: 40.7 nM
- koff [2]: 0.043 s⁻¹
- kon [2]: 1.06e+06 M⁻¹ s⁻¹

B7: Molecule I (antibody, V domains shown)
VH: YPQLVESGGGLVKPGGSLRLSCAARYPFTRLDMSWVRQAPGKGLEWVGSISPKGGSTYYNDNVLGRFTISRDNSKNTLYLQMNSLRAEDTAVYYCARDWGFFDNWGQGTLVTVSS
VL: AIQMTQSPSSLSASVGDRVTITCRASQSISNYLAWYQQKPGKAPKLLIYNASHPEYDVPSRFSGSGSGTDFTLTISSLQPEDFATYYCQQYSSHPYTFGQGTKLEIK
notes: also called 007D10 IgG antibody
- EC50 (pM), activation of PGLALA-CAR-J cells in presence of MAGE-A4 peptide pulsed T2 cells [1]: 182 pM
- Kd [2]: 96.4 nM
- koff [2]: 0.00246 s⁻¹
- kon [2]: 25500 M⁻¹ s⁻¹

B8: Molecule U (bispecific antibody, V domains shown)
VH 1: QVQLQQSGGEVMKPGASVKLSCKATGYTFTGYWIEWIKQRPGHGLEWIGEILPGSGGTNYNEKFKGKATFTAHTSSNTAYMQLSSLTTEDSAIYYCARDSNSFTYWGQGTLVTVSS
VL 1: QIVLTQSPAIMSASPGEKVTITCSVSSSVDYIHWFQQKPGTSPKFWIYSTSILASGVPARFSGSGSGTSYSLTISRMEAEDAATYYCQQRSSYPPTFGSGTKLEIK
VH 2: EVQLVESGGGLVQPGGSLRLSCAASGYSFTGYTMNWVRQAPGKGLEWVALINPYKGVSTYNQKFKDRFTISVDKSKNTAYLQMNSLRAEDTAVYYCARSGYYGDSDWYFDVWGQGTLVTVSS
VL 2: DIQMTQSPSSLSASVGDRVTITCRASQDIRNYLNWYQQKPGKAPKLLIYYTSRLESGVPSRFSGSGSGTDYTLTISSLQPEDFATYYCQQGNTLPWTFGQGTKVEIK
- EC50 (nM), T-cell mediated lysis of A375 cells, 48 h [7]: 1.96 nM
- EC50 (nM), T-cell mediated lysis of NCI-H2023 cells, 48 h [7]: 1.12 nM
- EC50 (nM), T-cell mediated lysis of UMUC-3 cells, 48 h [7]: 0.45 nM

B9: Molecule N (antibody, V domains shown)
VH: QVQLQQSGGEVMKPGASVKLSCKATGYTFTGYWIEWIKQRPGHGLEWIGEILPGSGGTNYNEKFKGKATFTAHTSSNTAYMQLSSLTTEDSAIYYCARDSNSFTYWGQGTLVTVSS
VL: QIVLTQSPAIMSASPGEKVTITCSVSSSVDYIHWFQQKPGTSPKFWIYSTSILASGVPARFSGSGSGTSYSLTISRMEAEDAATYYCQQRSSYPPTFGSGTKLEIK
- EC50 (pM), activation of PGLALA-CAR-J cells in presence of MAGE-A4 peptide pulsed T2 cells [1]: 19.2 pM
